From patent US20250066456A1 (NOVAVAX, published 2025) come the findings set out here.

The target in assay [1] is BV2438 (recombinant CoV S glycoprotein, Beta) (SARS-CoV-2, UniProt P0DTC2 14-1273). Nature of the assay: ELISA, plate coated with rS, serial dilution of the mAb, anti-mouse HRP, A450.
For assay [2], the target named is BV2425 (recombinant CoV S glycoprotein, Alpha) (SARS-CoV-2, UniProt P0DTC2 14-1273). Described as above.
The target in assay [3] is T1, BV2443 (recombinant CoV S glycoprotein, Gamma) (SARS-CoV-2, UniProt P0DTC2 14-1273). Described as above.
Assay [4] concerns the target BV2509 (recombinant CoV S glycoprotein, BA.1) (SARS-CoV-2, UniProt P0DTC2 14-1273). Described as above.
The target in assay [5] is T2, BV2465 (recombinant CoV S glycoprotein, Delta) (SARS-CoV-2, UniProt P0DTC2 14-1273). Described as above.
Assay [6] addresses BV2589 (recombinant CoV S glycoprotein, BQ.1.1) (SARS-CoV-2, UniProt P0DTC2 14-1273). Nature of the assay: ELISA on coated rS. For orientation: An ELISA detects its analyte on a solid surface through an enzyme-linked reagent.
Assay [7] deals with T1, BV2443 (recombinant CoV S glycoprotein, …). Nature of the assay: ELISA on coated rS.
Assay [8] concerns the target Delta Plus CoV S glycoprotein (recombinant) (Severe acute respiratory syndrome …, UniProt P0DTC2 14-1273). As to the kind of experiment: ELISA on coated rS.
The target in assay [9] is T2, BV2465 (recombinant CoV S glycoprotein, …). As to the kind of experiment: ELISA on coated rS.

Usually EC50 stands for the concentration at which the effect is half-maximal.

B1: 322.3 (antibody, V domains shown)
VH: RVQLQQSGPELVKPGASVTISCKASGYIFTSDYIHWVKQRPGQGPEWIGWIYPGNINTKYNEKFKGKATLTADKSSSTAYMQLSSLTSEDSAVYFCARDDGNLYYYAMDYWGQGTSVTVSS
VL: NIVLTQSPASLAVSLGQRATISCRASESVDSYGSSFMHWYQQKPGQPPKLLIYLASNLESGVPARFSGSGSRTDFTLTIDPVEADDAATYYCQQNNEDPRTFGGGTKLEIK
For B1, the EC50 in [1] was 0.084 µg/mL; in assay [2] it was 0.085 µg/mL; in assay [3], 0.084 µg/mL; in assay [4], 0.144 µg/mL; in [5] it was 0.082 µg/mL; in assay [6], 0.077 µg/mL.

B2: 35.13 (antibody, V domains shown)
VH: QVQLQQSGAELGKPGASVKLSCRASGYTFTRYYIYWVKQRPGQGLEWIGEINPSNGDTHFNEKFKTKATLTVDKSSSSAHIHLTSLTSEDSAVYYCSIHAYSFDFWGQGTTLTVSS
VL: EIQMTQSPSSMSASLGDRITITCQATQDIVKNLNWYQQKPGKPPSFLIYHATELAKGVPSRFSGSGSGSDYSLTISNLESEDFADYYCLQFYDFPFTFGAGTKLELKR
Consider B2, for which the EC50 in assay [7] is 0.012 µg/mL; in [8], 0.011 µg/mL; in assay [9] it was 0.01 µg/mL.
